The text below walks through data of patent publication US20110097340A1 (SCHERING, published 2011).

For one assay, the target named is T1, murine VEGF165 (murine, UniProt Q00731-2 27-190).
T1 construct: also called mVEGF165; rMu-VEGF165
T1 sequence (looked up): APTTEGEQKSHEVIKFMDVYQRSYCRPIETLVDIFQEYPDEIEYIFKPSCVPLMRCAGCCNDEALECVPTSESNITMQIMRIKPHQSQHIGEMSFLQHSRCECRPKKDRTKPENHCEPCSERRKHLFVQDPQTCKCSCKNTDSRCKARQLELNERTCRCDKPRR
The assay is described as follows: sandwich ELISA, antibody coated. Here is the method: Mutants were transiently expressed in CHO-K1 cells, and cell supernatants were collected for binding analysis by ELISA.
The plate was blocked with 30% ChemiBlock™ reagent (Millipore) in PBS for one hour at room temperature, and 30, 60, or 100 μl of CHO-K1 culture supernatant for each mutant, or 1 μg/ml of wild-type hVEGF₁₂₁, recombinant hVEGF₁₆₅, or recombinant mVEGF₁₆₅, was added to appropriate wells. After one hour of incubation, the plate was washed and incubated with a biotinylated goat polyclonal anti-VEGF antibody for one hour at room temperature. Detection was performed with HRP-conjugated streptavidin, followed by TMB chromogenic substrate (Calbiochem) using manufacturer protocol.

Assay [1] addresses T2, human VEGF165 (human, UniProt P15692 207-395). The experiment in a line: cell-based or functional assay.
Assay [2] deals with T2, human VEGF165. The assay is described as follows: Biacore 2000, hVEGF165 amine-coupled on C1 chip, antibody injected, 1:1 fit. The method, then: The VEGF binding affinity of these IgGs was tested on a Biacore 2000® by injecting the antibodies over a very low density antigen surface. Human or murine VEGF₁₆₅ was immobilized via standard amine coupling methods to flow cells on a C1 (planar carboxy surface) chip. Approximately 85 RU of each antigen was immobilized and a reference flow cell was activated and blocked. Antibodies were injected over the chip surface for 400 seconds at two different concentrations, after which dissociation was monitored. Data was analyzed by Scrubber® using double referencing and fitting with a 1:1 interaction. Regenerations were performed with 90 mM HCl with 500 mM NaCl.

T2 sequence (P15692 other isoform, or with tags, fused parts or gaps limits assumed): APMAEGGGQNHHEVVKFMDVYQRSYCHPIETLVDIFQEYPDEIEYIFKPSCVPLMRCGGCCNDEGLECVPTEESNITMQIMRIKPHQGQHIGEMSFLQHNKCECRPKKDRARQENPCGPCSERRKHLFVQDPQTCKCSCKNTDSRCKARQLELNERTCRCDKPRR

B1: Bevacizumab (antibody, V domains shown)
VH: EVQLVESGGGLVQPGGSLRLSCAASGYTFTNYGMNWVRQAPGKGLEWVGWINTYTGEPTYAADFKRRFTFSLDTSKSTAYLQMNSLRAEDTAVYYCAKYPHYYGSSHWYFDVWGQGTLVTVSS
VL: DIQMTQSPSSLSASVGDRVTITCSASQDISNYLNWYQQKPGKAPKVLIYFTSSLHSGVPSRFSGSGSGTDFTLTISSLQPEDFATYYCQQYSTVPWTFGQGTKVEIK
On to B1, for which the “Raw data (ELISA signal)” value with murine VEGF165 came to 0.0843.

B2: XPA.10.064.03 IgG2 (antibody, V domains shown)
VH: EVQLVQSGAEVRKPGASVKVSCKASGYSFTGHYIHWVRQAPGQGLEWMGWINPYSGGTNFPREFQGRVTMTRDTSVNTVYMELTRLTSDDTSVYYCARDQMVHGGLDYWGQGTLVTVSS
VL: SYVLTQPPSASGTPGQRVTISCSGSSSNIGINYVYWYQQLPGTAPKLLIYRNDQRPSGVPDRFSGSKSGTSASLAISGLRSEDEADYYCATWDDSLSGVVFGGGTKVTVL
notes: IgG2
Consider B2, for which the “HUVEC proliferation, geometric mean IC50” value with human VEGF165 [1] was determined as 0.174 nM. Besides, in the assay with human VEGF165 [2], the Kd stood at 0.0917 nM, the off-rate (koff) worked out at 1.8e-05 s⁻¹ and the kon was determined as 196000 M⁻¹ s⁻¹.

B3: XPA.10.064.10 IgG2 (antibody, V domains shown)
VH: EVQLVQSGAEVRKPGASVKVSCKASGYSFTGHYIHWVRQAPGQGLEWMGWINPYSGGTNFPREFQGRVTMTRDTSVNTVYMELTRLTSDDTSVYYCARDEMVWGGLDYWGQGTLVTVSS
VL: SYVLTQPPSASGTPGQRVTISCSGSSSNIGINYVYWYQQLPGTAPKLLIYRNDQRPSGVPDRFSGSKSGTSASLAISGLRSEDEADYYCATWDDSLSGVVFGGGTKVTVL
notes: IgG2
In the case of B3, the “HUVEC proliferation, geometric mean IC50” value with human VEGF165 [1] was determined as 0.139 nM. Moreover, in the assay with human VEGF165 [2], the Kd was 0.0556 nM, the koff is 1.16e-05 s⁻¹ and the kon came to 216000 M⁻¹ s⁻¹.

B4: XPA.10.064.04 IgG2 (antibody, V domains shown)
VH: EVQLVQSGAEVRKPGASVKVSCKASGYSFTGHYIHWVRQAPGQGLEWMGWINPYSGGTNFPREFQGRVTMTRDTSVNTVYMELTRLTSDDTSVYYCARDEMQNGGLDYWGQGTLVTVSS
VL: SYVLTQPPSASGTPGQRVTISCSGSSSNIGINYVYWYQQLPGTAPKLLIYRNDQRPSGVPDRFSGSKSGTSASLAISGLRSEDEADYYCATWDDSLSGVVFGGGTKVTVL
notes: IgG2
In the assay with human VEGF165 [2], B4 came in with a Kd of 0.197 nM, a koff of 2.94e-05 s⁻¹ and a kon of 150000 M⁻¹ s⁻¹.
